± gives the uncertainty stated by the source.
B1: Glucocorticoid receptor, residues 419 to 494; numbered along this chain, P04150 (parent)
chain: KLCLVCSDEASGCHYGVLTCGSCKVFFKRAVEGQHNYLCAGRNDCIIDKIRRKNCPACRYRKCLQAGMNLEARKTK

Variants of: B1
Assay: abundance fitness (aPCA) (normalised: wild type 0, dead -1); higher = more abundant; growth selection in yeast, the domain comes from the species named
Conditions: Homo sapiens

| Variant | abundance fitness |
| --- | --- |
| KLCLVCSDEASGCHYGVLTCGSCKVFFKRAVEGQHNYLCAGRNDCIIDKIRRKNCPACRYRKCLWAGMNLEARKTK [Q65W] | -0.063 ± 0.042 |
| KLCLVCSDEASGCHYGVLTCGSCKVFFKRAVEGQHNYLCAGRNDCIIDKIRRKNCPACRYRKCLNAGMNLEARKTK [Q65N] | -0.071 ± 0.073 |
| KLCLVCSDEASGCHYGVLTCGSCKVFFKRAVEGQHNYLCAGRNDCIIDKIRRKNCPACRYRKCLRAGMNLEARKTK [Q65R] | -0.053 ± 0.031 |
| KLCLVCSDEASGCHYGVLTCGSCKVFFKRAVEGQHNYLCAGRNDCIIDKIRRKNCPACRYRKCLYAGMNLEARKTK [Q65Y] | -0.09 ± 0.066 |
| KLCLVCSDEASGCHYGVLTCGSCKVFFKRAVEGQHNYLCAGRNDCIIDKIRRKNCPACRYRKCLPAGMNLEARKTK [Q65P] | -0.567 ± 0.079 |
| KLCLVCSDEASGCHYGVLTCGSCKVFFKRAVEGQHNYLCAGRNDCIIDKIRRKNCPACRYRKCLSAGMNLEARKTK [Q65S] | -0.009 ± 0.038 |
| KLCLVCSDEASGCHYGVLTCGSCKVFFKRAVEGQHNYLCAGRNDCIIDKIRRKNCPACRYRKCLVAGMNLEARKTK [Q65V] | -0.029 ± 0.038 |
| KLCLVCSDEASGCHYGVLTCGSCKVFFKRAVEGQHNYLCAGRNDCIIDKIRRKNCPACRYRKCLMAGMNLEARKTK [Q65M] | -0.057 ± 0.043 |
| KLCLVCSDEASGCHYGVLTCGSCKVFFKRAVEGQHNYLCAGRNDCIIDKIRRKNCPACRYRKCLLAGMNLEARKTK [Q65L] | -0.035 ± 0.035 |
| KLCLVCSDEASGCHYGVLTCGSCKVFFKRAVEGQHNYLCAGRNDCIIDKIRRKNCPACRYRKCLTAGMNLEARKTK [Q65T] | -0.086 ± 0.042 |
| KLCLVCSDEASGCHYGVLTCGSCKVFFKRAVEGQHNYLCAGRNDCIIDKIRRKNCPACRYRKCLQAEMNLEARKTK [G67E] | -0.228 ± 0.07 |
| KLCLVCSDEASGCHYGVLTCGSCKVFFKRAVEGQHNYLCAGRNDCIIDKIRRKNCPACRYRKCLQAIMNLEARKTK [G67I] | -0.415 ± 0.21 |
| KLCLVCSDEASGCHYGVLTCGSCKVFFKRAVEGQHNYLCAGRNDCIIDKIRRKNCPACRYRKCLQAKMNLEARKTK [G67K] | -0.308 ± 0.082 |
| KLCLVCSDEASGCHYGVLTCGSCKVFFKRAVEGQHNYLCAGRNDCIIDKIRRKNCPACRYRKCLQADMNLEARKTK [G67D] | -0.347 ± 0.12 |
| KLCLVCSDEASGCHYGVLTCGSCKVFFKRAVEGQHNYLCAGRNDCIIDKIRRKNCPACRYRKCLQAFMNLEARKTK [G67F] | -0.447 ± 0.12 |
| KLCLVCSDEASGCHYGVLTCGSCKVFFKRAVEGQHNYLCAGRNDCIIDKIRRKNCPACRYRKCLQACMNLEARKTK [G67C] | -0.534 ± 0.17 |
| KLCLVCSDEASGCHYGVLTCGSCKVFFKRAVEGQHNYLCAGRNDCIIDKIRRKNCPACRYRKCLQANMNLEARKTK [G67N] | -0.226 ± 0.1 |
| KLCLVCSDEASGCHYGVLTCGSCKVFFKRAVEGQHNYLCAGRNDCIIDKIRRKNCPACRYRKCLQAAMNLEARKTK [G67A] | -0.542 ± 0.067 |

| Variant | abundance fitness |
| --- | --- |
| KLCLVCSDEASGCHYGVLTCGSCKVFFKRAVEGQHNYLCAGRNDCIIDKIRRKNCPACRYRKCLQYGMNLEARKTK [A66Y] | -0.014 ± 0.065 |
| KLCLVCSDEASGCHYGVLTCGSCKVFFKRAVEGQHNYLCAGRNDCIIDKIRRKNCPACRYRKCLQEGMNLEARKTK [A66E] | -0.036 ± 0.048 |
| KLCLVCSDEASGCHYGVLTCGSCKVFFKRAVEGQHNYLCAGRNDCIIDKIRRKNCPACRYRKCLQLGMNLEARKTK [A66L] | -0.024 ± 0.037 |
| KLCLVCSDEASGCHYGVLTCGSCKVFFKRAVEGQHNYLCAGRNDCIIDKIRRKNCPACRYRKCLQCGMNLEARKTK [A66C] | -0.037 ± 0.048 |
| KLCLVCSDEASGCHYGVLTCGSCKVFFKRAVEGQHNYLCAGRNDCIIDKIRRKNCPACRYRKCLQQGMNLEARKTK [A66Q] | -0.037 ± 0.059 |
| KLCLVCSDEASGCHYGVLTCGSCKVFFKRAVEGQHNYLCAGRNDCIIDKIRRKNCPACRYRKCLQRGMNLEARKTK [A66R] | -0.179 ± 0.036 |
| KLCLVCSDEASGCHYGVLTCGSCKVFFKRAVEGQHNYLCAGRNDCIIDKIRRKNCPACRYRKCLQVGMNLEARKTK [A66V] | 0.021 ± 0.033 |
| KLCLVCSDEASGCHYGVLTCGSCKVFFKRAVEGQHNYLCAGRNDCIIDKIRRKNCPACRYRKCLQGGMNLEARKTK [A66G] | -0.109 ± 0.044 |
| KLCLVCSDEASGCHYGVLTCGSCKVFFKRAVEGQHNYLCAGRNDCIIDKIRRKNCPACRYRKCLQWGMNLEARKTK [A66W] | -0.227 ± 0.05 |
| KLCLVCSDEASGCHYGVLTCGSCKVFFKRAVEGQHNYLCAGRNDCIIDKIRRKNCPACRYRKCLQHGMNLEARKTK [A66H] | -0.052 ± 0.051 |
| KLCLVCSDEASGCHYGVLTCGSCKVFFKRAVEGQHNYLCAGRNDCIIDKIRRKNCPACRYRKCLQSGMNLEARKTK [A66S] | -0.058 ± 0.039 |
| KLCLVCSDEASGCHYGVLTCGSCKVFFKRAVEGQHNYLCAGRNDCIIDKIRRKNCPACRYRKCLQPGMNLEARKTK [A66P] | -0.859 ± 0.14 |
| KLCLVCSDEASGCHYGVLTCGSCKVFFKRAVEGQHNYLCAGRNDCIIDKIRRKNCPACRYRKCLQNGMNLEARKTK [A66N] | -0.02 ± 0.075 |
| KLCLVCSDEASGCHYGVLTCGSCKVFFKRAVEGQHNYLCAGRNDCIIDKIRRKNCPACRYRKCLQKGMNLEARKTK [A66K] | 0.024 ± 0.058 |
| KLCLVCSDEASGCHYGVLTCGSCKVFFKRAVEGQHNYLCAGRNDCIIDKIRRKNCPACRYRKCLQTGMNLEARKTK [A66T] | 0.029 ± 0.047 |
| KLCLVCSDEASGCHYGVLTCGSCKVFFKRAVEGQHNYLCAGRNDCIIDKIRRKNCPACRYRKCLQDGMNLEARKTK [A66D] | -0.33 ± 0.082 |
| KLCLVCSDEASGCHYGVLTCGSCKVFFKRAVEGQHNYLCAGRNDCIIDKIRRKNCPACRYRKCLQMGMNLEARKTK [A66M] | -0.031 ± 0.049 |
| KLCLVCSDEASGCHYGVLTCGSCKVFFKRAVEGQHNYLCAGRNDCIIDKIRRKNCPACRYRKCLQIGMNLEARKTK [A66I] | -0.242 ± 0.073 |

Reference: the Human Domainome abundance scans (Beltran et al. 2025)
